Reference: US20040235744A1
Read-outs that look alike come from different tables or passages of the source.

Key:
[1] = target: nNOS-II (novel constitutive neuronal nitric oxide synthase purified from rat cerebellum) (rat); test: enzyme inhibition kinetics on purified nNOS-II, competitive against BK as substrate, oxyhemoglobin assay, EZ-FIT
[2] = target: nNOS-II (novel constitutive neuronal nitric oxide synthase purified from rat cerebellum) (rat); test: as above; remark: listed apart in the source
Met-Lys-BK = tested on: T1, Met-Lys-BK
T1 sequence: MKRPPGFSPFR

Cit^1-BK = tested on: T2, Cit^1-BK
T2 sequence: XPPGFSPFR

Lys-BK = tested on: T3, Lys-BK
T3 sequence: KRPPGFSPFR

[3] = tested on: bradykinin (Arg-Pro-Pro-Gly-Phe-Ser-Pro-Phe-Arg)
[Lys^1]-BK = tested on: T4, [Lys^1]-BK
T4 sequence: KPPGFSPFR

Ile-Ser-BK = tested on: T5, Ile-Ser-BK
T5 sequence: ISRPPGFSPFR

BK fragment 2-7 = tested on: T6, BK fragment 2-7
T6 sequence: PPGFSP

BK fragment 1-7 = tested on: T7, BK fragment 1-7
T7 sequence: RPPGFSP

BK fragment 1-5 = tested on: T8, BK fragment 1-5
T8 sequence: RPPGF

Des-Arg^1-BK = tested on: T9, Des-Arg^1-BK
T9 sequence: PPGFSPFA

| Substance | Ki [1] | Ki [2] | Relative activity (%) as substrate, L-arginine = 100% (Met-Lys-BK) | apparent KM (NOS activity, oxyhemoglobin assay) (Cit^1-BK) | apparent Vmax (NOS activity, oxyhemoglobin assay) (Cit^1-BK) | Relative activity (%) as substrate, L-arginine = 100% (Lys-BK) | Relative activity (%) as substrate, L-arginine = 100% [3] | apparent KM (NOS activity, oxyhemoglobin assay) [3] | apparent Vmax (NOS activity, oxyhemoglobin assay) [3] | Relative activity (%) as substrate, L-arginine = 100% ([Lys^1]-BK) | Relative activity (%) as substrate, L-arginine = 100% (Ile-Ser-BK) | Relative activity (%) as substrate, L-arginine = 100% (BK fragment 2-7) | Relative activity (%) as substrate, L-arginine = 100% (BK fragment 1-7) | Relative activity (%) as substrate, L-arginine = 100% (BK fragment 1-5) | Relative activity (%) as substrate, L-arginine = 100% (Des-Arg^1-BK) | Relative activity (%) as substrate, L-arginine = 100% (Poly-arginine (Mr 5,000)) |
| --- | --- | --- | --- | --- | --- | --- | --- | --- | --- | --- | --- | --- | --- | --- | --- | --- |
| [N-adamantaneacetyl-D-Arg^0, Hyp^3, Thi^5,8, D-Phe^7]-BK (peptide) | 2500 µM | 2.5 µM |  |  |  |  |  |  |  |  |  |  |  |  |  |  |
| nNOS-II (novel constitutive neuronal nitric oxide synthase purified from rat cerebellum) |  |  | 0% | Apparent KM values for BK and Cit^1-BK were 8.5 and 6.2 µM, respectively | apparent Vmax values for BK and Cit^1-BK were 1.2 and 1.6 µmol/min/mg protein, respectively | 116% | 125% | Apparent KM values for BK and Cit^1-BK were 8.5 and 6.2 µM, respectively | apparent Vmax values for BK and Cit^1-BK were 1.2 and 1.6 µmol/min/mg protein, respectively | 113% | 110% | 0% | 80% | 61% | 94% | 30% |
